Reference: doi:10.1101/2020.02.01.930172 (bioRxiv, 2020)

Target: GST-SIRT6 K33R (human, UniProt Q8N6T7 1-355, K33R)
Test: pull-down

GST-SIRT6 K33R, sequence (Q8N6T7 whole entry K33R): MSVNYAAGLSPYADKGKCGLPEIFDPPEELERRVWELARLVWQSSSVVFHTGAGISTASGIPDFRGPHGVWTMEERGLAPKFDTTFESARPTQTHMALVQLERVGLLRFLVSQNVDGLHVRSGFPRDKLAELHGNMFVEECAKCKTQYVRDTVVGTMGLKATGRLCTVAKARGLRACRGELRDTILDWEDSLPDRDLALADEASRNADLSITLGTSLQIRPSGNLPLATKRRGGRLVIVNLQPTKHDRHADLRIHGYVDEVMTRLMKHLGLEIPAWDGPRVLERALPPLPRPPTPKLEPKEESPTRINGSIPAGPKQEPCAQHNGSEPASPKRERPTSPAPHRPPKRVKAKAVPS

GKKATQASQEY [biotin-labeled C-terminal γH2AX peptide]
binding result: binds
